Test results taken from US20050037969A1 (ARBOR VITA, published 2005).
Ends that are not written are not given here. * marks the point of attachment. Biotin = O=C1N[C@H]2[C@H](CS[C@H]2CCCCC(=O)*)N1

T1: GST-mouse syntenin fusion protein (Mus musculus, UniProt O08992 108-286)
T1 construct: also called Mus musculus Syntenin; not shown: glutathione S-transferase encoded by vector pGEX-3X (Pharmacia)
T1 chain: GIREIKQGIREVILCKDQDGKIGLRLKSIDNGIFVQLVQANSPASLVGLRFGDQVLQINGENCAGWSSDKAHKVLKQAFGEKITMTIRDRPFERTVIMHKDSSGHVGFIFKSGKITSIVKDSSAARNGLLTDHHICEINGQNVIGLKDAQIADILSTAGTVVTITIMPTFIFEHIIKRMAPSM

T2: GST-RGS12 PDZ domain fusion protein (human, UniProt O14924 17-85)
T2 construct: also called human regulator of G-protein signalling 12; not shown: glutathione S-transferase encoded by vector pGEX-3X (Pharmacia)
T2 sequence: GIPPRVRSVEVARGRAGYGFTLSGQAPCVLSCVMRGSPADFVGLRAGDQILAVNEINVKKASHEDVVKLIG

T3: GST-CASK PDZ domain fusion protein (Homo sapiens, UniProt O14936 486-575)
T3 construct: also called Homo sapiens CASK protein
T3 sequence: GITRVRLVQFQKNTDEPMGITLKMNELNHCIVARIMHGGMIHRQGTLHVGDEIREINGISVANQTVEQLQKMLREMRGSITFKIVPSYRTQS

T4: GST-PTN-4 PDZ domain fusion protein (Homo sapiens (Human), UniProt P29074 517-605)
T4 construct: also called protein-tyrosine phosphatase meg1; not shown: glutathione S-transferase encoded by vector pGEX-3X (Pharmacia)
T4 sequence: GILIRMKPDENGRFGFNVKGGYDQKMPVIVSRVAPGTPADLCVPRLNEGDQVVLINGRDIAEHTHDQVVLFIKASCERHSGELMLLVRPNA

T5: GST-prIL16 fusion protein (PDZ domains 1-2) (Homo sapiens (Human), UniProt Q14005 1111-1324)
T5 construct: also called putative interleukin 16 precursor; not shown: glutathione S-transferase encoded by vector pGEX-3X (Pharmacia)
T5 sequence: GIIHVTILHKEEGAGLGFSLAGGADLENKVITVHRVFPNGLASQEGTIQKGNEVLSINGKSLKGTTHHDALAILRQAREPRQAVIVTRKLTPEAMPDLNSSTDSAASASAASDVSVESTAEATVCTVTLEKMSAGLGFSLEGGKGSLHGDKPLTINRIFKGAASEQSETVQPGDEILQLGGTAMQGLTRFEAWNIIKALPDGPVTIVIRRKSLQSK

T6: GST-cytohesin binding protein PDZ domain fusion protein (Homo sapiens (Human), UniProt O60759 74-165)
T6 construct: also called CBP; not shown: glutathione S-transferase encoded by vector pGEX-3X (Pharmacia)
T6 sequence: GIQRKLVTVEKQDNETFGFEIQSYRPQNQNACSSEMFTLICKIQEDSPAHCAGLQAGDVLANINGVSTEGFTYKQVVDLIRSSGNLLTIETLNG

T7: GST-TAX-IP43 PDZ domain fusion protein (human, UniProt Q13884 109-180)
T7 construct: also called TAX43; not shown: glutathione S-transferase encoded by vector pGEX-3X (Pharmacia)
T7 sequence: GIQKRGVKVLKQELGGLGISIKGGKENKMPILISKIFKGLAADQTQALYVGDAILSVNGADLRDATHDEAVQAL

T8: X11β PDZ-GST fusion protein (Rattus norvegicus (Rat), UniProt O35431 560-745)
T8 construct: Order of GST and PDZ part and limits not seen in the excerpts
T8 chain: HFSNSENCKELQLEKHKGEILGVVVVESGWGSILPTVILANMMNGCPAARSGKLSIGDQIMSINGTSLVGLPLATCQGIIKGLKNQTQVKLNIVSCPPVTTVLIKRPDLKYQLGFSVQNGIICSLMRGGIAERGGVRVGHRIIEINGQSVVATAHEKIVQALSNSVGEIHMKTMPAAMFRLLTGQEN

T9: ConEn PDZ-GST fusion protein (Homo sapiens (Human), UniProt Q969H4 193-287)
T9 construct: The label ConEn is not explained in the excerpts
T9 sequence: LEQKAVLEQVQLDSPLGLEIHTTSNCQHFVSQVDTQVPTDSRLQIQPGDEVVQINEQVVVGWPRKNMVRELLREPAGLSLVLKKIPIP

T10: GST-TAX-IP2 PDZ domain fusion protein (human, UniProt O14908 129-216)
T10 construct: also called TAX-1P2; TAX2; not shown: glutathione S-transferase encoded by vector pGEX-3X (Pharmacia)
T10 chain: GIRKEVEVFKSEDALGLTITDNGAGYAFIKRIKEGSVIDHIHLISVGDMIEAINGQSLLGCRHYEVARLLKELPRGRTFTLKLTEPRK

T11: K858 PDZ-GST fusion protein (Homo sapiens (Human), UniProt Q8WWI1 1038-1131)
T11 construct: Order of GST and PDZ part and limits not seen in the excerpts
T11 sequence: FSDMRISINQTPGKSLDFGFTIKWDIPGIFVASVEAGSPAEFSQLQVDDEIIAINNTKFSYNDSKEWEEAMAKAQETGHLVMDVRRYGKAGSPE

T12: GST-AF6 PDZ domain fusion protein (Homo sapiens (Human), UniProt P55196 1001-1093)
T12 construct: also called af-6 protein; not shown: glutathione S-transferase encoded by vector pGEX-3X (Pharmacia)
T12 sequence: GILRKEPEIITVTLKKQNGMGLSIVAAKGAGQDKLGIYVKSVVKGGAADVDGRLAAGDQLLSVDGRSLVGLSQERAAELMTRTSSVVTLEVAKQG

T13: GST-MPP1 PDZ domain fusion protein (Homo sapiens (Human), UniProt Q00013 67-152)
T13 construct: also called p55; 55 Kd erythrocyte membrane protein; not shown: glutathione S-transferase encoded by vector pGEX-3X (Pharmacia)
T13 sequence: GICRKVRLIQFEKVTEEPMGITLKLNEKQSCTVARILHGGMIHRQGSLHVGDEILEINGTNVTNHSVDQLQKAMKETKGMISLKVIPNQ


What was measured:
Assay in all cases: A/G assays
[1] = target: T14, PICK1 PDZ-GST fusion protein (Bos taurus (Bovine), UniProt Q2T9M1 17-105)
T14 construct: Order of GST and PDZ part and limits not seen in the excerpts

[2] = target: T15, K316 PDZ-GST fusion protein (Homo sapiens (Human), UniProt Q14CM0 72-159)
T15 construct: Order of GST and PDZ part and limits not seen in the excerpts

[3] = target: T1, GST-mouse syntenin fusion protein
[4] = target: T2, GST-RGS12 PDZ domain fusion protein
[5] = target: T3, GST-CASK PDZ domain fusion protein
[6] = target: T4, GST-PTN-4 PDZ domain fusion protein
[7] = target: T5, GST-prIL16 fusion protein (PDZ domains …)
[8] = target: T6, GST-cytohesin binding protein PDZ …
[9] = target: T7, GST-TAX-IP43 PDZ domain fusion protein
[10] = target: T8, X11β PDZ-GST fusion protein
[11] = target: T9, ConEn PDZ-GST fusion protein
[12] = target: T10, GST-TAX-IP2 PDZ domain fusion protein
[13] = target: T11, K858 PDZ-GST fusion protein
[14] = target: T12, GST-AF6 PDZ domain fusion protein
[15] = target: T13, GST-MPP1 PDZ domain fusion protein

T14 sequence (Q2T9M1 other isoform, or with tags, fused parts or gaps limits assumed): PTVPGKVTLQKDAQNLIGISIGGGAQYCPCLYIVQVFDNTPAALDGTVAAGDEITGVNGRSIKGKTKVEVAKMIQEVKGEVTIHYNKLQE
T15 sequence (Q14CM0 72-159 limits assumed): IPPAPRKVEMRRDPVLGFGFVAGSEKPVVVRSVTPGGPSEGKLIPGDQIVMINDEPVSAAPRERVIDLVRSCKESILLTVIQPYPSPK

Binder	binding result [1]	binding result [2]	binding result [3]	binding result [4]	binding result [5]	binding result [6]	binding result [7]	binding result [8]	binding result [9]	binding result [10]	binding result [11]	binding result [12]	binding result [13]	binding result [14]	binding result [15]
Biotin-GTSDMKDLVGNIEQNEHSVI (Only the last four residues are seen in the excerpts) [Mannose receptor C-terminal peptide AA31L]	no binding	no binding	no binding	no binding	no binding	no binding	no binding	no binding	no binding	no binding	no binding	no binding	no binding	no binding	no binding
Biotin-ENLAPVTTFGKTNGYIA (also called CD148 (DEP-1)) [CD148 C-terminal peptide AA19L, biotinylated]	no binding	no binding	no binding	no binding	no binding	no binding	no binding	no binding	no binding	no binding	no binding	no binding	no binding	no binding	no binding
Biotin-SMQPDNSSDSDYDLHGAQRL (Only the last four residues are seen in the excerpts) [CD5 C-terminal peptide AA49L]	no binding	no binding	no binding	no binding	no binding	no binding	no binding	no binding	no binding	no binding	no binding	no binding	no binding	no binding	no binding

The remaining lines, values ahead:

binding result [1]	binding result [2]	binding result [3]	binding result [4]	binding result [5]	binding result [6]	binding result [7]	binding result [8]	binding result [9]	binding result [10]	binding result [11]	binding result [12]	binding result [13]	binding result [14]	binding result [15]	Binder
no binding	no binding	no binding	no binding	no binding	no binding	no binding	no binding	no binding	no binding	no binding	no binding	no binding	no binding	no binding	Biotin-LNFPLLQGIRVHGMEALGSF (Only the last four residues are seen in the excerpts) [CD114 (G-CSFR) C-terminal peptide AA27L]
no binding	no binding	no binding	no binding	no binding	no binding	no binding	no binding	no binding	no binding	no binding	no binding	no binding	no binding	no binding	Biotin-SSSQSLESDGSYQKPSYIL (Only the last four residues are seen in the excerpts) [CD62E C-terminal peptide AA48L]
no binding	no binding	no binding	no binding	no binding	no binding	no binding	no binding	no binding	no binding	no binding	no binding	no binding	no binding	no binding	Biotin-ISKATPALPTVSISSSAEV (also called AA1L-R) [Clasp-1 C-terminal peptide AA1L, biotinylated]
no binding	no binding	no binding	no binding	no binding	no binding	no binding	no binding	no binding	no binding	no binding	no binding	no binding	no binding	no binding	Biotin-SSKSKSSEESQTFFGLYKL (not fully specified, also called FasLigand; Fas ligand) [FasL C-terminal peptide AA23L-M, biotinylated]
no binding	no binding	no binding	no binding	no binding	no binding	no binding	no binding	no binding	no binding	no binding	no binding	no binding	no binding	no binding	Biotin-LERTSSVSPSTAEPELSIVF (Only the last four residues are seen in the excerpts) [CC CKR-3 C-terminal peptide AA43L]
